± gives the standard deviation.
Assay: protein stability index of a GFP-peptide fusion (GPS, HEK-293T) (PSI 1-6); higher = more stable
Settings: c terminus: a fixed tail appended
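Further: 24-mer peptide tiles fused after GFP, lentivirally expressed, FACS-sorted into six equal bins by GFP/DsRed ratio, decoded by Illumina sequencing, PSI is the read-weighted mean bin number.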

Sequence	protein stability index (treatment: DMSO)	protein stability index (treatment: MLN4924 1 uM, 8 h)
GFPRVAPEDEVIVNQYVIRPGPSA [RNF208]	3.66 ± 0.25	3.67 ± 0.13
WVEQAYADKCVCGPSAPPAPTPPS [TIAF1]	3.9 ± 0.17	3.9 ± 0.3
LTCVICLNYLVDPVTICCGHSFCR [TRIM43]	2.83 ± 0.82	2.91 ± 0.97
TVVSVRGFEESEPLTGFLTTVPDG [TNXB]	3.92 ± 0.25	3.78 ± 0.41
ERAIETLIKNFHQYSVEGGKETLT [S100A14]	3.53 ± 0.23	3.41 ± 0.22
RIYSYQMALTPVVVTLWYRAPEVL [CDK4]	2.98 ± 0.12	2.77 ± 0.47
QRAPQLPTWWPLPTQVPAAEDYLT [SPAG8]	3.12 ± 0.2	3.23 ± 0.21
SNLSTRDASILTEMPTQPGKPLIP [NETO1]	4.52 ± 0.18	4.57 ± 0.26
LSKASEPKYQLFVPQLVTGRCATR [RNF180]	2.88 ± 0.4	2.94 ± 0.2
QGMEVDLVTGLAIEEACYAQTIPT [AUH]	3.73 ± 0.21	3.53 ± 0.2
SQRAMLLQGTESLNRATQSIERSH [VTI1B]	4.27 ± 0.13	4.35 ± 0.21
MLTTRVFSLVGKRAISTSVCVRAH [COX4I1]	2.56 ± 0.64	2.4 ± 0.59
GTDRIVKIWDMTPVVGCSLATGFS [WDFY1]	2.66 ± 0.16	2.79 ± 0.48
GGYGGGVSCGFGGGAGSGFGGGYG [KRT13]	2.23 ± 0.19	2.38 ± 0.28
VIVPKEEGVISVSEDRTVRVWLKR [WDFY2]	2.78 ± 0.32	3.17 ± 0.2
QEKKRKFLESTDSFNNELKRLCGL [SMARCE1]	2.87 ± 0.41	3.14 ± 0.69
IKECLSKGTFSDVTFKLDDGAISA [RHOBTB1]	3.67 ± 0.18	3.95 ± 0.19
FLMDLPSAGRSMPEASDQEEHLSP [RNF180]	4.82 ± 0.21	5.08 ± 0.14

Sequence	protein stability index (treatment: DMSO)	protein stability index (treatment: MLN4924 1 uM, 8 h)
MQENITKVIERGERLDELQDKSES [VAMP4]	5.04 ± 0.37	5.05 ± 0.41
VLRVEQQPHLPLLSTLAGIRVMVH [SCNN1D]	2.31 ± 0.25	2.26 ± 0.082
DHCAQQDHGCEQLCLNTEDSFVCQ [MATN2]	5 ± 0.075	5.08 ± 0.16
EEEEDDLSELPPLEDMGQPPAEEA [FKBP8]	5.63 ± 0.2	5.5 ± 0.38
LKECLKKQLEFCFSRENLSKDLYL [LARP4]		2.67 ± 0.89
TLCQFPETLLGDPKRRMRYFDPLR [KCNA3]	2.26 ± 0.14	2.5 ± 0.34
CQQNMIQELIETNQQLRNELQLEQ [CEP70]	4.12 ± 0.26	3.85 ± 0.51
TPNSAGGPGAHILRRKSPASGQGP [ADAMTS4]	4.55 ± 0.15	4.93 ± 0.28
HNQIAIYAHQPRTADEIPMEPGDI [FUT8]	4.6 ± 0.19	4.52 ± 0.18
LGMVTPVNDLRGSDSIAYDKGEKL [ADD1]	4.62 ± 0.3	4.9 ± 0.089
REDITEPAICALRHLTSRHQEAEM [CTNNB1]	4.58 ± 0.41	4.4 ± 0.43
LKKGESECQYYIDKLEYLDEKQRD [NET1]	4.55 ± 0.15	4.5 ± 0.32
DSGFLGLRPTSVDPALRRRRRGPR [NOP53]	5.15 ± 0.4	5.17 ± 0.25
GMAFFKMREMFFEDHIDDAKYCGH [CNOT7]	2.35 ± 0.2	2.36 ± 0.16
DLSSESSIKKKFLKRKGKTDSPWI [EHMT1]	3.42 ± 0.37	3.66 ± 0.26
KAFWKEDNALWERDRNLLQEDKAL [CCDC70]	4.16 ± 0.081	4.24 ± 0.18
HFSQIVIFMLCTLVLAIPLLLILV [OR10K2]	2.24 ± 0.25	2.25 ± 0.19
YDYLRKLFTDLFDRKGYMFDYEYD [CSNK1G3]	2.11 ± 0.76	2 ± 0.3
